Assay results reported in PMC4300955.

Target: 53BP1 (UniProt Q12888)
Experiment: co-immunoprecipitation, Western blot
Conditions: reference: wild type MOF, 3-6 h after 10 Gy; sites T392

binding against the reference: stronger
Substance: MOF (hMOF) (from UniProt Q9H7Z6) MOF-T392A, 3-6 h after 10 Gy
